Reference: US20020197647A1 (ROCKEFELLER UNIVERSITY, published 2002)

Target: T1, c-Jun residues 1-104 (Rattus norvegicus (Rat), UniProt P17325 1-101, labeled with 35S by in vitro translation)
T1 construct: In vitro translated fragment; also called N-terminal region of c-Jun
T1 sequence: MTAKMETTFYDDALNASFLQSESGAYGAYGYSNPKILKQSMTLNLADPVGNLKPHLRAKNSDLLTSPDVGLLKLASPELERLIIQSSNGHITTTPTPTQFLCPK
Assay: GST pull-down of 35S-labeled in vitro translated c-Jun fragment

binding result: no binding
B1: GST-Stat3 (1-154) (other)
chain: MAQWNQLQQLDTRYLKQLHQLYSDTFPMELRQFLAPWIESQDWAYAASKESHATLVFHNLLGEIDQQYSRFLQESNVLYQHNLRRIKQFLQSRYLEKPMEIARIVARCLWEESRLLQTAATAAQQGGQANHPTAAVVTEKQQMLEQHLQDVRKR
notes: GST is placed N-terminal because of the pGEX vector; not shown: Glutathione S-transferase (GST) fusion partner of vector pGEX-5X-1 (Pharmacia)
